Test results taken from doi:10.1101/2020.10.06.327627 (bioRxiv, 2020).

Target: T1, human TRAP1 (mitochondrial Hsp90) (human, UniProt Q12931 60-704)
T1 sequence (looked up): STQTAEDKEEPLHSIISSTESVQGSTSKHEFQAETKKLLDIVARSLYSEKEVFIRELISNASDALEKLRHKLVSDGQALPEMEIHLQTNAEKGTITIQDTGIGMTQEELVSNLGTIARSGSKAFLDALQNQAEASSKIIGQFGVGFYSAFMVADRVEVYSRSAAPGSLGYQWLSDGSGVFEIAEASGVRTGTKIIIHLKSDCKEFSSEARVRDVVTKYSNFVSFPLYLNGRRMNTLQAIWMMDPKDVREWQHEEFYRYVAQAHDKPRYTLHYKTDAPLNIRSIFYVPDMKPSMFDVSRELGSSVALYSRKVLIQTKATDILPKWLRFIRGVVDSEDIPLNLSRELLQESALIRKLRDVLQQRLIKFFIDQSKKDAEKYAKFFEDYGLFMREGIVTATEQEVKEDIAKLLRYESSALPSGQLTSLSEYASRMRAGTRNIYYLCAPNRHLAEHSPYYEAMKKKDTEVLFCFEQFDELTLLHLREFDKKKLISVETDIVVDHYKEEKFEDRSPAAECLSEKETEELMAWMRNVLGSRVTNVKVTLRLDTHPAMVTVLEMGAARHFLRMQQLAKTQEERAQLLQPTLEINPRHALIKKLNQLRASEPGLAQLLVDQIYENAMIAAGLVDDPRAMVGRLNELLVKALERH
Assay: cell-based or functional assay

B1: SdhB160 (truncated human succinate dehydrogenase B subunit, truncated at K160) (domain or fragment, UniProt P21912 29-160, looked up)
chain: AQTAAATAPRIKKFAIYRWDPDKAGDKPHMQTYEVDLNKCGPMVLDALIKIKNEVDSTLTFRRSCREGICGSCAMNINGGNTLACTRRIDTNLNKVSKIYPLPHMYVIKDLVPDLSNFYAQYKSIEPYLKKK
Question: With B1 as the binder, how does the “acceleration of TRAP1 ATPase activity, EC50” value read?
Answer: The value was 6.6 µM.

Question: What about the “acceleration of TRAP1 dimer closure, inter-protomer FRET assay, EC50” value of the same binder?
Answer: Its value is 3.6 µM.
